Laboratory results from PMC4434323.

How the values were obtained:
[1] = biological target: T1, unc-120 (D1081.2) (Caenorhabditis elegans) (UniProt Q18955)
T1 sequence: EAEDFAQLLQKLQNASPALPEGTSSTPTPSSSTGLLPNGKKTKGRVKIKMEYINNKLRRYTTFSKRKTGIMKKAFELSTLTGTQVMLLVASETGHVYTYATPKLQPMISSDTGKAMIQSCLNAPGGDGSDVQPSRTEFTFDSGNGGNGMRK

[2] = biological target: T2, ceh-18 (ZC64.3) (Caenorhabditis elegans) (UniProt P41934)
T2 sequence: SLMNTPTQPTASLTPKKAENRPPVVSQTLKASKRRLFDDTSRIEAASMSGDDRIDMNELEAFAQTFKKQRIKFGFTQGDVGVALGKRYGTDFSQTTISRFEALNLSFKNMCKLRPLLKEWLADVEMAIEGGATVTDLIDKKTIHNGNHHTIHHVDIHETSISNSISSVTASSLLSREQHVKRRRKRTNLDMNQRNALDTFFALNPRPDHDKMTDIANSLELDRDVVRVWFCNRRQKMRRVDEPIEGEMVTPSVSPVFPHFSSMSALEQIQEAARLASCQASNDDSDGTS

[3] = biological target: T3, T07C12.11 (T07C12.11) (Caenorhabditis elegans) (UniProt G5EGG9)
T3 sequence: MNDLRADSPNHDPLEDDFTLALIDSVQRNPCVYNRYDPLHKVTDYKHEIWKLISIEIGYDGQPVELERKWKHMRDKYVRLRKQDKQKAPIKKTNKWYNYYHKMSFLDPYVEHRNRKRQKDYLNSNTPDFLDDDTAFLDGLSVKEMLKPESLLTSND

[4] = biological target: T4, C07E3.6 (C07E3.6) (Caenorhabditis elegans) (UniProt Q17792)
T4 sequence: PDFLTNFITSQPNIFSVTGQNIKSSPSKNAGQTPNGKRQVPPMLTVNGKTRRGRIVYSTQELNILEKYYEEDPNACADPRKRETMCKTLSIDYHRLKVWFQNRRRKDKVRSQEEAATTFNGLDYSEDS

[5] = biological target: T5, ceh-23 (ZK652.5) (Caenorhabditis elegans) (UniProt P34663)
T5 sequence: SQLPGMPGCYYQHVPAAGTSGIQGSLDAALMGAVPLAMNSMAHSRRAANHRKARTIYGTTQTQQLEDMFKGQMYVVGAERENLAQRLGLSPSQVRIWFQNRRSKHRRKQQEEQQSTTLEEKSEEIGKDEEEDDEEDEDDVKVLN

[6] = biological target: T6, eyg-1 (Y53C12C.1) (Caenorhabditis elegans) (UniProt O01996)
T6 sequence: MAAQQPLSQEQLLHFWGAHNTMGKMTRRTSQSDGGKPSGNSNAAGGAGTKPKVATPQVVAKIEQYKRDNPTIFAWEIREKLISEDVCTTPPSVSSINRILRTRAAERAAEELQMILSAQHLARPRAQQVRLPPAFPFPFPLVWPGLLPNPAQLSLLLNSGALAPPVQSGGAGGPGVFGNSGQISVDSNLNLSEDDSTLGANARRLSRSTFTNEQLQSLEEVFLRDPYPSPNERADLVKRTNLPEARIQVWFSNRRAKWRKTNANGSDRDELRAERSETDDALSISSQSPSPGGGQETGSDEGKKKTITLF

[7] = biological target: T7, atf-6 (F45E6.2) (Caenorhabditis elegans) (UniProt Q20435)
T7 sequence: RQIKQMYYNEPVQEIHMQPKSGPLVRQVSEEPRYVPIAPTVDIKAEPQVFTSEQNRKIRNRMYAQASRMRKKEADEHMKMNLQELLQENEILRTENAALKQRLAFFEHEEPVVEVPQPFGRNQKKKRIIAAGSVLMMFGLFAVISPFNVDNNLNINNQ

| Sequence | binding signal (PBM E-score (-0.5 to 0.5)) [2] | binding signal (PBM E-score (-0.5 to 0.5)) [3] | further results |
| --- | --- | --- | --- |
| CCATAAAA (double strand) [8-mer CCATAAAA] |  |  | binding signal (PBM E-score (-0.5 to 0.5)) [1]: 0.459 |
| GCCTTATA (double strand) [8-mer GCCTTATA] |  |  | binding signal (PBM E-score (-0.5 to 0.5)) [1]: 0.47 |
| TTATGCAA (double strand) [8-mer TTATGCAA] | 0.476 |  |  |
| ATATAAGG (double strand) [8-mer ATATAAGG] |  |  | binding signal (PBM E-score (-0.5 to 0.5)) [1]: 0.478 |
| CCATATAA (double strand) [8-mer CCATATAA] |  |  | binding signal (PBM E-score (-0.5 to 0.5)) [1]: 0.465 |
| ACGTAAGA (double strand) [8-mer ACGTAAGA] |  | 0.486 |  |
| CTTGCGCA (double strand) [8-mer CTTGCGCA] |  | 0.489 |  |
| CTTACGCA (double strand) [8-mer CTTACGCA] |  | 0.487 |  |
| AATTATGC (double strand) [8-mer AATTATGC] | 0.484 |  |  |
| AAATAAGG (double strand) [8-mer AAATAAGG] |  |  | binding signal (PBM E-score (-0.5 to 0.5)) [1]: 0.464 |
| CCTTATAA (double strand) [8-mer CCTTATAA] |  |  | binding signal (PBM E-score (-0.5 to 0.5)) [1]: 0.474 |
| TATGCATA (double strand) [8-mer TATGCATA] | 0.497 |  |  |
| GAATATTC (double strand) [8-mer GAATATTC] | 0.494 |  |  |
| AATATGCA (double strand) [8-mer AATATGCA] | 0.482 |  |  |
| ATATGCAT (double strand) [8-mer ATATGCAT] | 0.486 |  |  |
| ATACGTAA (double strand) [8-mer ATACGTAA] |  | 0.491 |  |
| ATATGCAC (double strand) [8-mer ATATGCAC] | 0.477 |  |  |
| ACGTAAGC (double strand) [8-mer ACGTAAGC] |  | 0.487 |  |

| Sequence | binding signal (PBM E-score (-0.5 to 0.5)) [2] | binding signal (PBM E-score (-0.5 to 0.5)) [3] | further results |
| --- | --- | --- | --- |
| TATGCAAA (double strand) [8-mer TATGCAAA] | 0.486 |  |  |
| ACGTAAGG (double strand) [8-mer ACGTAAGG] |  | 0.488 |  |
| TTAATTAA (double strand) [8-mer TTAATTAA] |  |  | binding signal (PBM E-score (-0.5 to 0.5)) [4]: 0.496; binding signal (PBM E-score (-0.5 to 0.5)) [5]: 0.497; binding signal (PBM E-score (-0.5 to 0.5)) [6]: 0.487 |
| ATTATGCA (double strand) [8-mer ATTATGCA] | 0.496 |  |  |
| ACTAATTA (double strand) [8-mer ACTAATTA] |  |  | binding signal (PBM E-score (-0.5 to 0.5)) [4]: 0.498; binding signal (PBM E-score (-0.5 to 0.5)) [5]: 0.495; binding signal (PBM E-score (-0.5 to 0.5)) [6]: 0.477 |
| CATAATTA (double strand) [8-mer CATAATTA] | 0.483 |  | binding signal (PBM E-score (-0.5 to 0.5)) [4]: 0.495; binding signal (PBM E-score (-0.5 to 0.5)) [5]: 0.493 |
| CTTACGTA (double strand) [8-mer CTTACGTA] |  | 0.495 | binding signal (PBM E-score (-0.5 to 0.5)) [7]: 0.456 |
| TACGTAAA (double strand) [8-mer TACGTAAA] |  | 0.488 |  |
| GATAATTA (double strand) [8-mer GATAATTA] |  |  | binding signal (PBM E-score (-0.5 to 0.5)) [4]: 0.497; binding signal (PBM E-score (-0.5 to 0.5)) [5]: 0.492; binding signal (PBM E-score (-0.5 to 0.5)) [6]: 0.48 |
| GTTAATTA (double strand) [8-mer GTTAATTA] |  |  | binding signal (PBM E-score (-0.5 to 0.5)) [4]: 0.498; binding signal (PBM E-score (-0.5 to 0.5)) [5]: 0.497; binding signal (PBM E-score (-0.5 to 0.5)) [6]: 0.481 |
| GTTACGTA (double strand) [8-mer GTTACGTA] |  | 0.49 |  |
| CATATGCA (double strand) [8-mer CATATGCA] | 0.478 |  |  |
| TGCATAAA (double strand) [8-mer TGCATAAA] | 0.476 |  |  |
| ATGAATAA (double strand) [8-mer ATGAATAA] | 0.477 |  |  |
| ATGCATAA (double strand) [8-mer ATGCATAA] | 0.495 |  |  |
| CTTGCGTA (double strand) [8-mer CTTGCGTA] |  | 0.487 |  |
| AATATTCA (double strand) [8-mer AATATTCA] | 0.477 |  |  |
| AACGTAAG (double strand) [8-mer AACGTAAG] |  | 0.486 |  |
